Target: the molecule itself
Assay: cryo-EM structure; purified MmIGF1R and HsIGF1 mixed at molar ratio 1:2, 1 h at 4 °C, complex purified by SEC in 20 mM Hepes-Na pH 7.4, 200 mM NaCl, 0.03% DDM; 4.3 Å

B1: full-length mouse IGF1R (MmIGF1R), residues 1–1262, Y951A, D1107N (receptor)
chain: not shown
notes: Mouse type 1 insulin-like growth factor receptor with C-terminal tail truncation and kinase dead mutation, residues 1–1262, Y951A, D1107N; Disulfide-linked covalent dimer of two protomers; it is written here as one chain per protomer; also called type 1 insulin-like growth factor receptor; not shown: Tsi3, C-terminal, cleaved
- stoichiometry N: 2

— article PMC6783537, “Structural basis of the activation of type 1 insulin-like growth factor receptor” (Nature Communications, 2019)
